The supplement of paper PMC9170038

Tested on: K4 kissing-loop RNA reporter
Test: apparent KD of K4 kissing-loop reporter; higher = weaker reporter binding
Conditions: Eterna round: R107
Experimental: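 RNA-MaP round R107: designed RNA switches with theophylline, tryptophan, arginine or FMN aptamers are transcribed on-chip within common flanks. They are titrated with a labelled K4 kissing-loop RNA reporter in RNA-MaP buffer (100 mM Tris pH 7.5, 80 mM KCl, 4 mM MgCl2), without ligand or with the indicated ligand. Median apparent KD per design.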

[1] = input ligand: theophylline 20 uM
[2] = input ligand: tryptophan 2.4 mM
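Further: bound reporter read as fluorescence of individual clusters on recovered sequencing chips by microscopy, with normalized cluster intensities fitted with a binding model.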

Row | Sequence | apparent KD of K4 kissing-loop reporter (input ligand: FMN 200 uM) [nM] | apparent KD of K4 kissing-loop reporter (input ligand: arginine 13.2 mM) [nM] | apparent KD of K4 kissing-loop reporter (input ligand: none) [nM] | apparent KD of K4 kissing-loop reporter [1] [nM] | apparent KD of K4 kissing-loop reporter [2] [nM]
1 | GGGACGCUAGCUCGAAUGUAGUGAUUUGAUACCAGCCUGUCACUUGGCCCUUGGCAGCAAAGCAGAGUGAUGUUCUGACCAACCU [theeternabot_sameState_KL_Theo_A_47] | 189 | 298 | 235 | 346 | 144
2 | GGAUGGUAGGCGGCCGCCACUAAAACUGAACACAUACAAACCAGUGAUGUUGGUAUGAUGAAGUAUAGGACCGGGCCUAGAUAGA [Exclusion - Tryptophan B (Freestyle 2)] | 1040 | 731 | 972 | 672 | 827
3 | GUAGCACUCGGUAGUGAUGUUAUCGAGGACAAGGAUAUCAUCUCAAUGAGAAGGUGUCCUUGAUAACAGCUACGGGAAUAUCCCA [Omei KL FMN A Exc D v4] | 386 | 117 | 134 | 120 | 127
4 | UGUACCGAGUCAGGAUAUCAUAAUAAUGCAGUGAUGUUGCAAUAACGACUGACAAAGUCGGUCGAUUGAGAAGGGACUUGGUACU [FmnBS 6 #SwitchBubble #StaticStem] | 127 | 118 | 129 | 110 | 126
5 | AGCGAUGUUUUCUCUAAGAGUGAUGUUUUUCGAGGACCGGUACGGCCGCCACUCGAAUAAAGUGUGUGGUAGUGAGCUGUUGACA [#17 K4 Tryptophan A Exclusion] | 1150 | 606 | 1110 | 648 | 804
6 | AGGACUCUUGUGGGUACGCAUCUAGCCGAUACCAGACUUCCAUAUGUCCCUUGGCAGCGGCAGUGAUGUUGUCGUUACGCCAUCA [theeternabot_exclusion_KL_Theo_A_34] | 140 | 133 | 147 | 212 | 131
7 | AACGCUGUGAAUAACACAGCGAAUAAUUCGCGAGGACCGGUACGGCCGCCACUCGCUAACUGCGAGUGAUGUUCGAUAAUAAAAU [Mat - Mod of OpenEnded 3 - D12] | 148 | 116 | 177 | 237 | 113
8 | AAUAAUGAUGUUUAGGAUUUCCGAAUGGAAGGAGCGUGCGAAAGCACAGGUAGGUCGCCAGUGAUGUUGGGACCUGAGCAUCAAA [#SwitchBubble 6 #K4Late] | 681 | 514 | 703 | 807 | 629
9 | UACAAACGUAGUGAUGUUACGUACUCUGAUACCAGACAAGUGUAAGUCCCUUGGCAGCAGUCAUUUUGCUUAUUAUUUUCUCAAA [JR_ExcTheophyA_Sub019] | 70.1 | 88.1 | 74.1 | 86.4 | 68.1
10 | CCGCGGCAAGCUCCGGAACCCAUAUUCGAUACCAGCCUUAUCACGGGCCCUUGGCAGCGAGCGUUAGUGAUGUUAGCGGCAUGGU [theeternabot_sameState_KL_Theo_A_27] | 528 | 256 | 311 | 276 | 384
11 | GGAUAGGACAGAGGAUAUCCAGUGAUGUUGGAGAAUUCUCCUUCAUCAUGUCACAAAAGUGGCAUGGGAGAAGGCUGUCCUAUCG [Mod of Eli's FmnBX 29 v3] | 146 | 579 | 576 | 899 | 578
12 | AGAUUCGACACGGCCGCCACUUGUGGUGGAUUAUCCUAUGUCGAACAUGAGUGAUGUUCAUGUACAAGGACCGGGUGUUGAGUCU [KL-XTryp-B6 #analogue] | 476 | 373 | 421 | 438 | 492
13 | AAGCAGUCAGAGAGUGAUGUUCUCAAAUAACGAGGACCGGUACGGCCGCCACUCGAAGACUGCAAGUCCUACGAAAAGUAGGACA [Omei inspired 9] | 78.7 | 59.5 | 58.3 | 136 | 74.4
14 | AACUCUCAGGCACCCGAGUGAUGUUCGGGCCGAGGACCGGUACGGCCGCCACUCGGGCCUGAGAGAGGUUAUCAAAGAUAGCCAA [Omei KL Tryp A SS A v1] | 247 | 68.5 | 114 | 62.7 | 248
15 | ACCUACGAUCACAAAAGUGAUUGUAGGAUCUAGGAUAUGCUGAAGAGCAGAAGGAGAGUGAUGUUCUCAUCUCACGAAAGUGAGA [whbob_Ex_FMNA__2th189] | 408 | 189 | 216 | 263 | 201
16 | UUCUAGCCGAAAGGCUAGUCGGCUUCAGAUACCAGUCGCGAAAGCGACCCUUGGCAGCUGUGUAGUGAUGUUGCAAAGAAAGCCG | 556 | 435 | 618 | 262 | 524
17 | GUUUUAUAGGAGGAUACCAGUACAAAUAAAGUGCAUUAAUAGUAGAGUGAUGUUCUAAAGUACCCUUGGCAGCUUAGUUUAAGUU [#26 K4 Theophylline B Exclusion] | 151 | 278 | 185 | 357 | 100
18 | CGCAAGCAGCCAGUGAUGUUGGCCGCCUUGCGAGGACCGGUACGGCCGCCACUCGAAGGCGGCUACUGGUAAACCGUCUAACGGA [Oronorenma] | 94.9 | 71.7 | 66.4 | 62.8 | 90.1
19 | UGCAUGUGAAACAUGUAGGUGCUAGGUGAAGGAGCGAUCGAAAGAUCAGGUAGGUCGCACCUUCCUGAGUGAUGUUCAGGUAAUA [KL-SSArg-A2] | 60.3 | 31.7 | 47.7 | 55.2 | 46
20 | GCAAAACGCAGUGAUGUUGCGAUAUCGGAAGGAGCGCGUGAAAACGCAGGUAGGUCGCCGAUUCAGUGAGUAUCUCGCUGUUUGC [Arginine A K4 18] | 258 | 283 | 293 | 259 | 232
21 | GUAAGACCGGGACUCCAGUGAUGUUGGAGGCAGGAUAUCCAGUCGAGGAGAAGGGCCAGGGAUAUCGAGCUGCUCGGUUUGUAGU [Argeis] | 81.9 | 69.5 | 93.6 | 78.9 | 56.2
22 | CGGCUCAAUCCUAGUAUUAAGAGGGAGUUGCGAGGACCGGUACGGCCGCCACUCGAAGUAGUUUGGCCAGUGAUGUUGGUCUUAC [Mabeleon] | 203 | 194 | 210 | 204 | 121

Row | Sequence | apparent KD of K4 kissing-loop reporter (input ligand: FMN 200 uM) [nM] | apparent KD of K4 kissing-loop reporter (input ligand: arginine 13.2 mM) [nM] | apparent KD of K4 kissing-loop reporter (input ligand: none) [nM] | apparent KD of K4 kissing-loop reporter [1] [nM] | apparent KD of K4 kissing-loop reporter [2] [nM]
23 | AAGCAGUCCCUUGUAGUCAUCGAAGAUGAACGAGGACCGGUACGGCCGCCACUCGGAGUGAUGUUCCGAAGGCUGCAAAAUAAAA [MatMod 19 - Jieux - Exclusion - Tryptophan A] | 122 | 123 | 135 | 152 | 310
24 | UUUUUCGCGUUUGAUACCAGCAGAGUUGUUCGUGUCUGGAACAUGAGUGAUGUUCAUGUCUGCCCUUGGCAGCAAACGGGAGAAG [KL-XTheo-B13] | 127 | 112 | 103 | 87.8 | 124
25 | UUGCAUGCUAGGGAAACCUAGCAUGCAUGCCGAGGACCGGUACGGCCGCCACUCGAACGAGUGAUGUUCGUUGACCAAAAUAAAA | 227 | 468 | 337 | 635 | 282
26 | UGAUAGGACAGAAGGAGCGGUAGUGAUGUUACCAAAAGAAUAAGGUGUCAAAAGACACCCUACCAGGUAGGUCGCUGUCCUAUCU | 170 | 237 | 189 | 220 | 179
27 | GGUAGCUAGGUAGGAUAUAGCUAGUGGAGUGAUGUUCCACGAUACACGAGUGAUGUUCGUACCCUGCUAGAAGGGCCUAGCUACC | 114 | 159 | 168 | 172 | 161
28 | UUUUUAUAAGAGGAUACCAGUACAAAUAAAGUACAUUAAUAGUAGAGUGAUGUUCUAAAGUACCCUUGGCAGCUUAGAUUAAGUU [ExTheophylB.D] | 158 | 268 | 172 | 255 | 117
29 | UGACGUAAAACCGUCGAAUCGCUGUGAGAAGGAGCGGUAAAAUUGCCAGGUAGGUCGCUCACAGCCUCACAGUGAUGUUGUGGGA [Sovetequ] | 468 | 104 | 246 | 199 | 162
30 | ACCUGUGACUGAAGGAGCGUCUACUCCAGAGGAUGGAGUGAUGUUCCACUUUAAUGGAGUGGACAGGUAGGUCGCAGUCAUAGGA [Arg B SS t6] | 126 | 94.5 | 108 | 88.7 | 115
31 | CGCGCUGGUUGAGAGGUUGGCGCGAAUGAUACCAGUAUAUAAGAAUACCCUUGGCAGCAUAAGAAAGAUAUAGUGAUGUUGUAUA [SSTheophA.H] | 592 | 344 | 404 | 448 | 370
32 | GUAGGAUGAGGAGGAGGAUGAAUUACUGAAGGAGCGCAUAUUAAUGCAGGUAGGUCGCGGUAAAGAAGUAUAGUGAUGUUAUAUA [SSArgA.H] | 238 | 538 | 589 | 399 | 234
33 | CUUUGAACAUGAGUGAUGUUCAUGUCCGAAGGAGCGUGCGAAAGCACAGGUAGGUCGCGGACGUGAGUGAUGUUCAUGUGAGCGA [KL-XArg-A11 #analogue] | 196 | 134 | 161 | 167 | 154
34 | UAUAGAGUGACGGCCGCCACUAUUGUGAUUUAAUUGUUAGAGUGAUGUUUUGAUGUUUGAUUUUGUAGGACCGGGUUAUAUGUUA [wwwzmullin] | 1090 | 720 | 890 | 795 | 718
35 | UGACUACAAAGGAAAUAAUCCUAGUGAUGUUAGGAUAUGCUGAUAAGCAGAAGGAACUGAGAUCGAAAGAUCUCAAAUGUAGUCU [FmnAX 26 Mat Inspired #SwitchBubble #StaticStem #K4Early] | 131 | 90.1 | 84.9 | 96.6 | 88.2
36 | AGUUCCGACGGAAGGAGCGGACAGUAUUGACGGAAAGGUGCAAGUGAUGUUUGCGCUUGUGUCCAGGUAGGUCGCCGUCGGAACA [Arg B SS t13] | 91.3 | 82.4 | 84.7 | 79.3 | 89.4
37 | GGGAGUGAUGUUCCCACGUUGUCGGUCCUUCGAGGACCGGUACGGCCGCCACUCGCGACCCAGUGAUGUUGGGAUUCACCGUACC [Exclusion Tryptophan A Gf 13] | 431 | 421 | 471 | 506 | 409
38 | UUUACCAGUGAUGUUGGCCUAGUAUUUACACGAGGACCGGUACGGCCGCCACUCGCAUUAUCGGACUUUGAUAAGCAUAUUAUAU [theeternabot_sameState_KL_Trp_A_28] | 317 | 283 | 318 | 384 | 199
39 | UAAGUGAUUCACAAGCUAGAGUUACUCGAAGGAGCGACGAAUUCGUCAGGUAGGUCGCGAGUGAUGUUCGCAUGCUCUAGCAAAU [AK1 Exc Arginine A] | 655 | 681 | 704 | 689 | 650
40 | AAUUUAUAUUUAUUCUUUAAAUGUUCAGAAGGAGCGUGAAUUAUCACAGGUAGGUCGCUGGGCUAGUGAUGUUGGCUAUAUACUA [whbob_Ex_Arginine_A_2t125] | 150 | 186 | 162 | 196 | 124
41 | UGUAUGUGAUUUGAUACCAGACCAGCUGGUGGUAUAUGAGUGAUGUUCAUGUUGGUUUGGGUCCCUUGGCAGCAAAUCGCAUACU [KL-SSTheoB10] | 271 | 183 | 217 | 213 | 212
42 | UGUAUGGACUGAAGGAGCGCUAGGUAUGUGAGUGAUGUUCAUAUAAAUGUAUAAAGGGUUUGGCAGGUAGGUCGCAGUCCAUACU [KL-SSArg B6] | 213 | 122 | 227 | 154 | 188
43 | AGUGAUGUUUCUUUUAAGAGUGAUGUUUUUCGAGGACCGGUACGGCCGCCACUCGAGUGAUGAGUGCGUCGUUGUGGUGAUUAGU [#13 K4 Tryptophan A Exclusion] | 483 | 281 | 463 | 379 | 229
